Values quoted from earlier work in article PMC7468149.

Key:
VEGFR2 (Homo sapiens) = VEGFR2 (Homo sapiens) (UniProt P35968); assay: SPR
VEGFR1 (Homo sapiens) = VEGFR1 (Homo sapiens) (UniProt P17948); assay: SPR
Sequence of UniProt P17948 (P17948 27-1338): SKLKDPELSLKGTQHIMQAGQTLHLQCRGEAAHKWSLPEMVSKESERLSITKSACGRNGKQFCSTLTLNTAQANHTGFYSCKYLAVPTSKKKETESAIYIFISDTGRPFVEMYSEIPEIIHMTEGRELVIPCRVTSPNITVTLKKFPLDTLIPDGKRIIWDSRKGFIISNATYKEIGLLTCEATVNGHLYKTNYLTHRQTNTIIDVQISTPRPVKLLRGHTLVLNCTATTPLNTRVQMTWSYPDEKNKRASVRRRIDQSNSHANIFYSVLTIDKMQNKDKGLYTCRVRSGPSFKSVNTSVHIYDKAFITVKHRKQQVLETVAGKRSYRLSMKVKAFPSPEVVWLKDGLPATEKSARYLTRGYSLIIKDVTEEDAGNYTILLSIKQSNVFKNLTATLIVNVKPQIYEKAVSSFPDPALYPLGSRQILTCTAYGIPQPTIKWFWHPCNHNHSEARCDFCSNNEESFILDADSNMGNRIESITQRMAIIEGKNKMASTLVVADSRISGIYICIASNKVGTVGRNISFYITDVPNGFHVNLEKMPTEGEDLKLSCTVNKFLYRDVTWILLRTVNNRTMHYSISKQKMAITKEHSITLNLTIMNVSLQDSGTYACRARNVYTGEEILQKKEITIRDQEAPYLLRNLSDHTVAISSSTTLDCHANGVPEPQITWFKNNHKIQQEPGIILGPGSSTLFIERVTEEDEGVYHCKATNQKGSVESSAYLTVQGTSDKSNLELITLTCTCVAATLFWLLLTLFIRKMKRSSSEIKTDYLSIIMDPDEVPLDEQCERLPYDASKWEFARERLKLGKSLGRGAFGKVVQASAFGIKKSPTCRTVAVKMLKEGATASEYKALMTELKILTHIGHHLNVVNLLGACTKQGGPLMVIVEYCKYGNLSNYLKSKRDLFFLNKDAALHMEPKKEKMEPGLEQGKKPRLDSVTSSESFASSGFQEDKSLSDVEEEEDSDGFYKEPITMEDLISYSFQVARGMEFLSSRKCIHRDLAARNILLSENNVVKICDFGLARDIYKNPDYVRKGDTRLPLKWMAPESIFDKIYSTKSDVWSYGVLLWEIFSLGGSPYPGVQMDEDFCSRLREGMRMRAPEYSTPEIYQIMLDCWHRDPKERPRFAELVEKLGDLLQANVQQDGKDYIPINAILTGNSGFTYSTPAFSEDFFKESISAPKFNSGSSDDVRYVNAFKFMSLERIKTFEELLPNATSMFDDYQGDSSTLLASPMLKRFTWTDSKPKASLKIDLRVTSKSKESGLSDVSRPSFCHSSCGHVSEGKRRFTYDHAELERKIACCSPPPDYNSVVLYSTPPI

Sequence of UniProt P35968 (P35968 20-1356): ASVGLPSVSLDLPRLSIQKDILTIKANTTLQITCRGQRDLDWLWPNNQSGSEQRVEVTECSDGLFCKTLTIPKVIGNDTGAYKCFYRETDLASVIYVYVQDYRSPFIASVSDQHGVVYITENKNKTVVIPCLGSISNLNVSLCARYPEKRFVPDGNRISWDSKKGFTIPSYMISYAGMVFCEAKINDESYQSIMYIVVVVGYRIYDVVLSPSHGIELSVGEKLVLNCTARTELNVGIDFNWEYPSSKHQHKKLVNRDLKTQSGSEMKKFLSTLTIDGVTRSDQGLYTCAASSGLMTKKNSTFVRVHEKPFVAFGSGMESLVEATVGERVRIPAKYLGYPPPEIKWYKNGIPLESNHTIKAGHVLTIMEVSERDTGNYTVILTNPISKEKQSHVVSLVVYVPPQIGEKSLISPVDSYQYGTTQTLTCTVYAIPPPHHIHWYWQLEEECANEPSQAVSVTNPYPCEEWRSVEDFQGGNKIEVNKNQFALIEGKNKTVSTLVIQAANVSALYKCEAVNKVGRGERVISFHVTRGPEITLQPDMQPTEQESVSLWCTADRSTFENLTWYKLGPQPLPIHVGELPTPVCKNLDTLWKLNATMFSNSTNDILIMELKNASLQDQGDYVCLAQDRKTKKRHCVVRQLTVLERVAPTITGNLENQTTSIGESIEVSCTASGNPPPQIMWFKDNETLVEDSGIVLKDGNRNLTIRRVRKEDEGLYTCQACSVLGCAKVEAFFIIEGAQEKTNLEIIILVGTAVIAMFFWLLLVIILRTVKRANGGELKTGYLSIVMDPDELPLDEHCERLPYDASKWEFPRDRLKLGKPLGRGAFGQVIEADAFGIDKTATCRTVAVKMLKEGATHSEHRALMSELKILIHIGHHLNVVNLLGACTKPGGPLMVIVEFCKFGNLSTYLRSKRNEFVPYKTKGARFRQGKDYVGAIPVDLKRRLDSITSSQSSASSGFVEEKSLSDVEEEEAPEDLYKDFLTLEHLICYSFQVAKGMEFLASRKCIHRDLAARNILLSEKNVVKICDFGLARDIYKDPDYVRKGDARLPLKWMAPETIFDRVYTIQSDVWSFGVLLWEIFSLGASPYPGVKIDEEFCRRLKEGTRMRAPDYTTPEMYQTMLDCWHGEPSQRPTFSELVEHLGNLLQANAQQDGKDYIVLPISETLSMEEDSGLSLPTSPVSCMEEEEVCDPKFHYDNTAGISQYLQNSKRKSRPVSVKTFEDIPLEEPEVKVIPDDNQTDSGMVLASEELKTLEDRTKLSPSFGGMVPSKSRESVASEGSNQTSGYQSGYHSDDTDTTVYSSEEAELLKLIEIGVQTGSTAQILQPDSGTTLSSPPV

Kd (VEGFR2 (Homo sapiens)): 0.052 nM
Kd (VEGFR1 (Homo sapiens)): 0.0075 nM
Substance: VEGF-A165a (from UniProt P15692)
